Ratio to parent data for two substances are collected here from publication PMC11281603.

The target of the test is polymeric Ig receptor (pIgR) fused to the FLAG tag (UniProt P01833). Conditions: parent: 1.00.
UniProt P01833, sequence (P01833 19-764): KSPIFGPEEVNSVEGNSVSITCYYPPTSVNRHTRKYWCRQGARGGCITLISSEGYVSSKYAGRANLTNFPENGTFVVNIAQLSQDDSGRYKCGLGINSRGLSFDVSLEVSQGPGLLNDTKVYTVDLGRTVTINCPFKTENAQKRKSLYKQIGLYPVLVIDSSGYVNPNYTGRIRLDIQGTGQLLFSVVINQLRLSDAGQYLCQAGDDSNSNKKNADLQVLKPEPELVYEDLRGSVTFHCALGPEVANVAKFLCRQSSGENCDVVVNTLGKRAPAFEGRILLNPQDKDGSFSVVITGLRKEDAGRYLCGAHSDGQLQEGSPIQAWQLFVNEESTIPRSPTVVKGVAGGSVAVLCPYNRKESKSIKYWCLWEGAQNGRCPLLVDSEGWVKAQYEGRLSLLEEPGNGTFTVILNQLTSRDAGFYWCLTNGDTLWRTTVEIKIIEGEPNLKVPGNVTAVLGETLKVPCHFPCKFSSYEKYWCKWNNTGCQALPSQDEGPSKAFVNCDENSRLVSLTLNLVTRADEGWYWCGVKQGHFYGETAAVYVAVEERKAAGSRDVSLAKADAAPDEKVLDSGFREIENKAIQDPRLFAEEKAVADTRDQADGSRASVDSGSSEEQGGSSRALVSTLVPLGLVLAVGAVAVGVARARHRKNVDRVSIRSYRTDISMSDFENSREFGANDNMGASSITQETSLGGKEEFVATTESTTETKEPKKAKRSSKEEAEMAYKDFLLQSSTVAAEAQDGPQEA

As for “WT SARS-CoV-2 ORF8 fused to a C-terminal Strep-II tag (from UniProt P0DTC8) C20A”, the ratio to parent amounted to 0.43.

Consider “WT SARS-CoV-2 ORF8 fused to a C-terminal Strep-II tag (from UniProt P0DTC8) R115A”, for which the ratio to parent was 1.
